The target of data set [1] is T1, ZntR (Salmonella enterica sv. Typhimurium …, UniProt A0A0H3NSQ7 1-141). As to the kind of experiment: fluorescence anisotropy; apo, 5 mM EDTA; 10 nM probe, 60 mM NaCl, 240 mM KCl, 10 mM HEPES pH 7.0, anaerobic; temperature not stated. The following applies: protein: recombinant; chain copies: 2; label: 5' HEX on strand 1; blunt. Background: Fluorescence polarisation rises when a labelled molecule tumbles more slowly, as on binding a larger partner.

Data set [2] concerns the target T1, ZntR. The experiment in a line: fluorescence anisotropy; Co(II)-ZntR, 5 uM CoCl2; 10 nM probe, 60 mM NaCl, 240 mM KCl, 10 mM HEPES pH 7.0, anaerobic; temperature not stated. The following applies: protein: recombinant; chain copies: 2; label: 5' HEX on strand 1; blunt.
For data set [3], the target named is T1, ZntR. The experiment in a line: fluorescence anisotropy; Zn(II)-ZntR, 1.2 eq ZnCl2; 10 nM probe, 60 mM NaCl, 240 mM KCl, 10 mM HEPES pH 7.0, anaerobic; temperature not stated. The following applies: protein: recombinant; chain copies: 2; label: 5' HEX on strand 1; blunt.
Data set [4] addresses T2, Zur (Salmonella enterica sv. Typhimurium …, UniProt A0A0H3NVF0 1-171). The experiment in a line: fluorescence anisotropy; Co(II)-Zur, 1 uM CoCl2; 10 nM probe, 60 mM NaCl, 240 mM KCl, 10 mM HEPES pH 7.0, anaerobic; temperature not stated. The following applies: protein: recombinant; chain copies: 4; label: 5' HEX on strand 1; blunt.
For data set [5], the target named is T2, Zur. As to the kind of experiment: fluorescence anisotropy; Zn(II)4-Zur, 1 uM ZnCl2; 10 nM probe, 60 mM NaCl, 240 mM KCl, 10 mM HEPES pH 7.0, anaerobic; temperature not stated. The following applies: protein: recombinant; chain copies: 4; label: 5' HEX on strand 1; blunt.
The target in data set [6] is T2, Zur. The experiment in a line: fluorescence anisotropy; Zn(II)2-Zur (tightest two exchangeable sites filled); 10 nM probe, 60 mM NaCl, 240 mM KCl, 10 mM HEPES pH 7.0, anaerobic; temperature not stated. The following applies: protein: recombinant; chain copies: 4; label: 5' HEX on strand 1; blunt.

We go through 2 molecules from PMC5709419, “Fine control of metal concentrations is necessary for cells to discern zinc from cobalt”.

As usually defined, the Kd is a measure of binding affinity in units of concentration.

B1: zntAPro (dsDNA)
DNA 1: CTTGACTCTGGAGTCGACTCCAGAGTGTATCCTC
DNA 2: GAGGATACACTCTGGAGTCGACTCCAGAGTCAAG
With B1, the Kd was 1100 nM with ZntR [1], 340 nM with ZntR [2] and 650 nM in the data set with ZntR [3].

B2: znuAPro (dsDNA)
DNA 1: TAGAATGTTATAATATCACATTTCACACATTCA
DNA 2: TGAATGTGTGAAATGTGATATTATAACATTCTA
With B2, the Kd came out at 31 nM with Zur [4], 54 nM in the data set with Zur [5] and 41 nM with Zur [6].
